Three molecules from patent publication US20240272171A1 (PHENOMEX, published 2024) can be followed below.

No end group written: not given here. *: point of attachment. FITC = O=C1OC2(c3ccc(O)cc3Oc3cc(O)ccc32)c2ccc(NC(=S)*)cc21

The target of assay [1] is T1, HLA-A*02:01 MHC Class I complex (recombinant, biotinylated) (human, biotinylated (lysine of a C-terminal BirA recognition sequence)).
T1 construct: Bought as a peptide-loaded complex (Biolegend or other maker); also called pHLA (when loaded with peptide)
Description: loading into HLA-A*02:01 and catalysed peptide exchange test.

Assay [2] addresses T1, HLA-A*02:01 MHC Class I complex …. Description: pMHC on streptavidin beads held in T cell culture media at 37 C for 0-48 h; APC W6/32 staining, flow cytometry MFI fitted to an exponential decay. In general terms: In flow cytometry, cells or beads pass a laser one at a time.

B1: EP5 GAATKMAAV (SEQ ID NO: 13), FITC-labelled in-place peptide GAAT{Lys(FITC)}MAAV (peptide)
peptide: GAATK(FITC)MAAV
Consider B1, for which, in assay [1], the binding result is reported as “binds”.

B2: SLYSYFQKV (SEQ ID NO: 5), SLC45A2-derived peptide (peptide)
peptide: SLYSYFQKV
notes: also called Immunogenic SLC45A2-derived peptide; SLC45A2 antigen peptide
Consider B2, for which the “half-life of the complex” value in assay [2] is around 17 h.

B3: SLLPIMWQLY (SEQ ID NO: 6), TCL1-derived peptide (peptide)
peptide: SLLPIMWQLY
notes: also called Non-Immunogenic TCL1-derived peptide
B3: the “half-life of the complex” value in assay [2] is around 0.5 h.
